Reference: PMC7039684, “Control of cell death/survival balance by the MET dependence receptor” (eLife, 2020)

Key:
Assay in all cases: FRET or BRET; FLIM-FRET by TCSPC in live co-transfected HEK293T cells, 37°C, L-15 medium; lifetime of the mT2 donor against donor alone; SYFP2 or EYFP fusion as acceptor
BAK-mTurquoise2 = BAK-mTurquoise2 (UniProt Q16611)
BAX-SYFP2 = target: T1, BAX-SYFP2 (UniProt Q07812 1-192); details: partners not purified
T1 construct: BAX, pro-apoptotic BCL2 family protein; amplified by PCR from Flag-tagged BAX; Cloned with EcoRI and XhoI into the SYFP2 plasmid; also called SYFP2-tagged BAX; source: HEK293T, transfected, in live cells

BAK-SYFP2 = target: T2, BAK-SYFP2 (UniProt Q16611 1-211); details: partners not purified
T2 construct: BAK, pro-apoptotic BCL2 family protein; amplified by PCR from Flag-tagged BAK; Cloned with EcoRI and XhoI into the SYFP2 plasmid; also called SYFP2-BAK; source: HEK293T or IHH cells, transfected, in live cells
T2 sequence (looked up): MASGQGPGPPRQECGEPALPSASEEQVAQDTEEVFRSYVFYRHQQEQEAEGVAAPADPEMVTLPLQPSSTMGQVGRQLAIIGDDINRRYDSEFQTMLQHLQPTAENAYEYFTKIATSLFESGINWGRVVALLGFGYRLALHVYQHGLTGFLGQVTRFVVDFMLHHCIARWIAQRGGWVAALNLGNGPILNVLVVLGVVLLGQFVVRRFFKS

BAX-mTurquoise2 = target: T3, BAX-mTurquoise2 (UniProt Q07812 1-192); details: partners not purified
T3 construct: BAX, pro-apoptotic BCL2 family protein; amplified by PCR from Flag-tagged BAX; Cloned with EcoRI and XhoI into the mTurquoise2 plasmid; also called BAX-mT2; mT2-fused BAX; source: HEK293T, transfected, in live cells
T3 sequence (Q07812 whole entry, the tested form may be a part): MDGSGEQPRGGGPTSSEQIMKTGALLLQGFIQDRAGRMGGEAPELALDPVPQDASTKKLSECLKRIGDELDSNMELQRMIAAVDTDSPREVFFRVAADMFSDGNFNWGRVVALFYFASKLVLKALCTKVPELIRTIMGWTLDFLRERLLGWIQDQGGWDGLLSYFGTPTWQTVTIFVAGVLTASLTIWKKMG

T1 sequence (Q07812 whole entry): as the sequence (Q07812 whole entry, the tested form may be a part) above

With “free SYFP2 (Super Yellow Fluorescent Protein 2)” the mean FRET efficiency (BAK-mTurquoise2) was < 0.1%.

B1: p40MET-mTurquoise2 (domain or fragment, mouse, UniProt P16056 1001-1374, looked up)
chain: YRATFPEDQFPNSSQNGACRQVQYPLTDLSPILTSGDSDISSPLLQNTVHIDLSALNPELVQAVQHVVIGPSSLIVHFNEVIGRGHFGCVYHGTLLDNDGKKIHCAVKSLNRITDIEEVSQFLTEGIIMKDFSHPNVLSLLGICLRSEGSPLVVLPYMKHGDLRNFIRNETHNPTVKDLIGFGLQVAKGMKYLASKKFVHRDLAARNCMLDEKFTVKVADFGLARDMYDKEYYSVHNKTGAKLPVKWMALESLQTQKFTTKSDVWSFGVLLWELMTRGAPPYPDVNTFDITIYLLQGRRLLQPEYCPDALYEVMLKCWHPKAEMRPSFSELVSRISSIFSTFIGEHYVHVNATYVNVKCVAPYPSLLPSQDNID
notes: limits worked out from the stated caspase sites; also called p40MET-mT2; mT2-p40MET; source: HEK293T or IHH cells, transfected, in live cells
With B1 the “mean FRET efficiency” value (BAX-SYFP2) was 2.5% and the “mean FRET efficiency” value (BAK-SYFP2) was 4%.

B2: p40MET-SYFP2 (domain or fragment, mouse, UniProt P16056 1001-1374, looked up)
chain: YRATFPEDQFPNSSQNGACRQVQYPLTDLSPILTSGDSDISSPLLQNTVHIDLSALNPELVQAVQHVVIGPSSLIVHFNEVIGRGHFGCVYHGTLLDNDGKKIHCAVKSLNRITDIEEVSQFLTEGIIMKDFSHPNVLSLLGICLRSEGSPLVVLPYMKHGDLRNFIRNETHNPTVKDLIGFGLQVAKGMKYLASKKFVHRDLAARNCMLDEKFTVKVADFGLARDMYDKEYYSVHNKTGAKLPVKWMALESLQTQKFTTKSDVWSFGVLLWELMTRGAPPYPDVNTFDITIYLLQGRRLLQPEYCPDALYEVMLKCWHPKAEMRPSFSELVSRISSIFSTFIGEHYVHVNATYVNVKCVAPYPSLLPSQDNID
notes: limits worked out from the stated caspase sites; also called SYFP2-p40MET; source: HEK293T or IHH cells, transfected, in live cells
B2 was tested, and the “mean FRET efficiency” value (BAX-mTurquoise2) was 4.3%.
